Experimental data as given in patent US20030129638A1, “Reagents for antagonizing the protein-protein interaction between Raf-1 and apoptosis signal-regulating kinase and uses therefor” (priority 2001, published 2003).

Assays:
ERK1/2 activation = test: Western blot of ERK1/2 activation in HeLa cell lysates; type: cell-based, human; settings: HeLa cells, 60 μM
Procedure: Cell lysates from HeLa cells treated with 60 μM PD98059 or vehicle were probed by Western blotting with either an ERK1/2 activation-specific antibody (Upper; Cell Signaling Technology) or pan-ERK1/2 antibody (Lower; Cell Signaling Technology).
To test the hypothesis that Raf-1 regulates ASK1-induced apoptosis through the MEK-ERK pathway, we used two widely used MEK antagonists, PD98059 and U0126 (Dudley et al. (1995) Proc. Natl. Acad. Sci. USA 92:7686-7689; Favata et al. (1998) J. Biol. Chem. 273:18623-18632). […] To confirm the observations with PD98059 and U0126, we used a dominant negative mutant of MEK1, MEK1dn, to interfere with MEK signaling (Sugimoto et al. (1998) EMBO J. 17:1717-1727).

[1] = test system: ASK1-induced apoptosis in HeLa cells; test: β-gal cell morphology-based apoptosis assay: effect of MEK inhibition on Raf-1 inhibition of ASK1-induced cell death; design: species or system human; settings: PD98059 60 μM for 18 h
Procedure: FIG. 2B is a graphic summary of the effect of MEK inhibition by PD98059 on Raf-1 function. Six hours after transfection as in A, HeLa cells were treated with PD98059 (60 μM) or vehicle (DMSO) for 18 h before being stained with 5-bromo-4-chloro-3-indolyl-D-galactopyranoside and scored for apoptosis in a blind fashion. Specific apoptosis is derived by subtracting the level of apoptosis seen in pcDNA3-transfected cells. At least 500 cells were scored for each sample. Results shown are representative of three independent experiments.
For the nuclear morphology assays (Zhang et al. (1999) Proc. Natl. Acad. Sci. USA 96:8511-8515), 2×10^5 HeLa cells were cultured in 35-mm dishes containing glass coverslips. […] Twenty-four hours later, cells on the glass coverslips were washed, fixed (0.5% glutaraldehyde/2% formaldehyde in PBS), stained with 4′,6-diamidino-2-phenylindole (DAPI) in Vectashield mounting medium (Vector Laboratories), and visualized by using a fluorescence microscope as described (Zhang et al. (1999) Proc. Natl. Acad. Sci. USA, 96:8511-8515). Transfected cells with fragmented nuclei were scored for apoptosis in a blind fashion. […] Twenty-four hours after transfection, cells were fixed, stained with 5-bromo-4-chloro-3-indolyl-β-D-galactopyranoside, and scored for apoptosis as described (Chang et al. (1998) Science 281:1860-1863). […]

Raf-1 = Raf-1 (Homo sapiens, UniProt P04049); test: Association of ASK1 N-terminal domain truncation peptides with Raf-1; type: binding; settings: N-terminal domain fusion peptide
Procedure: FIG. 6A provides a schematic representation of the ASK1 N-terminal domain truncation proteins used herein. Association of ASK1 mutants with Raf-1 is summarized. Positive interaction is represented by (+).
(§1) Forty-eight hours after transfection, 4×10^5 COS7 cells were lysed in 300 μl of lysis buffer (0.2% Nonidet P-40/10 mM Hepes, pH 7.4/150 mM NaCl/5 mM NaF/2 mM Na3VO4/5 mM Na4P2O7/10 μg/ml aprotonin/10 μg/ml leupeptin/1 mM phenylmethylsulfonyl fluoride). Cell extracts were clarified by centrifugation and used for immunoprecipitation with various antibodies and protein G-Sepharose (Amersham Pharmacia). Immunocomplexes were washed four times with lysis buffer containing 1% Nonidet P-40 or RIPA buffer (1% Nonidet P-40/0.5% sodium deoxycholate/0.1% SDS/137 mM NaCl/20 mM Tris.HCl, pH 7.5) and resolved on SDS/PAGE (12.5%) for Western blotting. The enzyme-linked immunoblotting procedures were performed essentially as described (Zhang et al. (1999) Proc. Natl. Acad. Sci. USA 96:8511-8515). Corresponding secondary antibodies were used against each primary antibody: horseradish peroxidase-conjugated goat anti-mouse IgG for monoclonal antibodies and horseradish peroxidase-conjugated goat anti-rabbit IgG for polyclonal antibodies (Santa Cruz Biotechnology). Cross-reacting materials were visualized by using the ECL detection reagents (Amersham Pharmacia).
FIG. 6A provides a schematic representation of the ASK1 N-terminal domain truncation peptides used herein. Various truncation mutants of the ASK1 N-terminal domain were generated as shown and expressed as fusion proteins with a (His)6-tag at the N-terminus and an HA-tag at the C-terminus, except ASK-N69-163 which has the N-terminal (His)6-tag but a GST-tag at the C-terminus. Association of ASK1 mutants with Raf-1 is summarized. Positive interaction is represented by (+).

[2] = test system: Raf-1 prosurvival effects on ASK1-induced cell death in COS7 cells; test: DNA content-based flow cytometric apoptosis assay (sub-G0 fraction) in transfected COS7 cells; type: cell-based; settings: COS7 cells cotransfected with HA-ASK1, Flag-Raf-1 and ASK1 truncation construct (0.3 μg), FIG. 8
Procedure: FIG. 8 provides a graphic representation of data obtained from a DNA content-based flow cytometric apoptosis assay. The fraction of transfected cells with sub-G0 DNA content in each sample was quantified. The data presented are representative of three independent experiments.
The DNA content-based apoptosis assay was performed with a fluorescence-activated cell sorter as described (Spector et al. (1997) Cells: A Laboratory Manual (Cold Spring Harbor Lab. Press, Plainview, N.Y.). Briefly, COS7 cells (2×10^5) were cotransfected with pEGFP-F (0.4 μg; CLONTECH) encoding a farnesylated eGFP and test plasmids (1.6 μg total). Twenty-four hours after transfection, total cells were trypsinized, resuspended in PBS, fixed in ice-cold ethanol followed by overnight incubation, treated with RNase A (Sigma-Aldrich), and stained with propidium iodide (Sigma-Aldrich). Samples were analyzed with a FACSort flow cytometer (Becton Dickinson). The DNA content of transfected cells was determined by using WINMDI 2.8 software (Trotter, Scripps Research Institute, La Jolla, Calif.).
A DNA content-based flow cytometric apoptosis assay was performed to evaluate the effects of the ASK1 N-terminal domain truncation peptides on the prosurvival effects of Raf-1. COS7 cells were transfected with indicated plasmids encoding HA-ASK1 (1.0 μg), Flag-Raf-1 (0.3 μg) or ASK1 truncation constructs (0.3 μg) as indicated along with an EGFP-F expression vector (0.4 μg) as described.

[3] = molecular target: T1, protein-protein interaction between Raf-1 and ASK1 (Homo sapiens, UniProt P04049); test: Coimmunoprecipitation with anti-Raf-1 antibody and Western blot for ASK1 in transfectants expressing ASK1 N-terminal domain fusion peptides; type: cell-based; settings: fusion peptide expressed in cells, FIG. 7
T1 construct: expressed in transfected cells; host or cells: COS7
Procedure: FIG. 7 is a Western blot analysis of Raf-1 immunoprecipitates obtained from transfectants comprising N-terminal domain truncation peptides.
as §1
Coimmunoprecipitation experiments were performed using anti-Raf-1 antibody (RI9120, Transduction Laboratories) as described. […] Raf-1 immunoprecipitates were analyzed with antibodies specific for ASK1 and Raf-1 (upper panel). HA-ASK1 protein present in Raf-1 immunoprecipitates was probed with anti-ASK1 antibody H-300 (1:2000, Santa Cruz;). […] The effect of this disruption is manifested as the absence of ASK1 protein in the Raf-1 immunoprecipitates.

Binding to Raf-1 (Raf-1)	Molecule	Activation of ERK1/2 (ERK1/2 activation)	Effect on the ability of Raf-1 to inhibit ASK1-induced cell death [1]	Effect on Raf-1 prosurvival effects on ASK1-induced cell death [2]	Disruption of the Raf-1/ASK1 interaction (ASK1 in Raf-1 immunoprecipitates) [3]
	COc1cccc(-c2cc(=O)c3ccccc3o2)c1N [PD98059]	diminished the activation of ERK1/2	did not decrease the ability of Raf-1 to inhibit ASK1-induced cell death		
ability to bind Raf-1	SEQ ID NO:3: amino acid residues 6 to 230 of full-length human ASK1 (SEQ ID NO:1), expressed as a (His)6/HA-tagged fusion peptide (protein, UniProt Q99683 6-230, looked up, fragment, His6/HA tag) DEGITFSVPPFAPSGFCTIPEGGICRRGGAAAVGEGEEHQLPPPPPGSFWNVESAAAPGIGCPAATSSSSATRGRGSSVGGGSRRTTVAYVINEASQGQLVVAESEALQSLREACETVGATLETLHFGKLDFGETTVLDRFYNADIAVVEMSDAFRQPSLFYHLGVRESFSMANNIILYCDTNSDSLQSLKEIICQKNTMCTGNYTFVPYMITPHNKVYCCDSSF			eliminates Raf-1 prosurvival effects on ASK1-induced cell death	disrupts the protein-protein interaction between Raf-1 and ASK1
ability to bind Raf-1	SEQ ID NO:7: amino acid residues 6 to 163 of the full-length human ASK1 sequence set forth in SEQ ID NO:1 (protein, UniProt Q99683 6-163, looked up, fragment) DEGITFSVPPFAPSGFCTIPEGGICRRGGAAAVGEGEEHQLPPPPPGSFWNVESAAAPGIGCPAATSSSSATRGRGSSVGGGSRRTTVAYVINEASQGQLVVAESEALQSLREACETVGATLETLHFGKLDFGETTVLDRFYNADIAVVEMSDAFRQP			eliminates Raf-1 prosurvival effects on ASK1-induced cell death	disrupts the protein-protein interaction between Raf-1 and ASK1
ability to bind Raf-1	SEQ ID NO:8: amino acid residues 69 to 230 of the full-length human ASK1 sequence set forth in SEQ ID NO:1 (protein, UniProt Q99683 69-230, looked up, fragment) AATSSSSATRGRGSSVGGGSRRTTVAYVINEASQGQLVVAESEALQSLREACETVGATLETLHFGKLDFGETTVLDRFYNADIAVVEMSDAFRQPSLFYHLGVRESFSMANNIILYCDTNSDSLQSLKEIICQKNTMCTGNYTFVPYMITPHNKVYCCDSSF			eliminates Raf-1 prosurvival effects on ASK1-induced cell death	disrupts the protein-protein interaction between Raf-1 and ASK1
